Results as given in article PMC8299219 (Cell, 2021).

B1: C30B10 (antibody, V domains shown)
VH: QVQLVESGGGVVQPGRSLRLSCAASGFTFSSYGMHWVRQAPGKGLEWVAVIWYDGSNKYYADSVKGRFTISRDNSKNTLYLQMNSLRAEDTAVYYCARDYPFSGSYYGDAFDIWGQGTMVTVSS
VL: SYELTQPPSVSVSPGQTARITCSGDALPKKYAYWYQQKSGQAPVLVIYEDSKRPSGIPERFSGSSSGTMATLTISGAQVEDEADYYCYSTDSSGNRWVFGGGTKLTVL
B2: G32B4 (antibody, V domains shown)
VH: not shown
VL: SYELTQPPSVSVSPGQTARITCSGDALPKKYAYWYQQKSGQAPVLVIYEDSKRPSGIPERFSGSSSGTMATLTISGAQVEDEADYYCYSTDSSGNLWVFGGGTKLTVL
B3: C81E12 (antibody, V domains shown)
VH: QVQLVESGGGVVQPGRSLRLSCAASGFTFSSYGMHWVRQAPGKGLEWVAVIWYDGSNKYYADSVKGRFTISRDNSKNTLYLQMNSLRAEDTAVYYCARDLRLGDHFDYWGQGTLVTVSS
VL: SYELTQPPSVSVSPGQTARITCSGDALPKKYAYWYQQKSGQAPVLVIYEDSKRPSGIPERFSGSSSGTMATLTISGAQVEDEADYYCYSTDSSGNHRVFGGGTKLTVL
B4: C12B5 (antibody, V domains shown)
VH: QVQLVESGGGVVQPGRSLRLSCAASGFTFSSYGMHWVRQAPGKGLEWVAVIWYDGSNKYYADSVKGRFTISRDNSKNTLYLQMNSLRAEDTAVYYCARDLAVATQNDYWGQGTLVTVSS
VL: SYELTQPPSVSVSPGQTARITCSGDALPKKYAYWYQQKSGQAPVLVIYEDGKRPSGIPERFSGSSSGTMATLTISGAQVEDEADYYCYSTDSSGNRWVFGGGTKLTVL
B5: G32M1 (antibody, V domains shown)
VH: QVQLVESGGGVVQPGRSLRLSCVASGFTFSSYGMHWVRQAPGKGLEWVAVIWYDGSNKYYADSVKGRFTISRDNSKNTLYLQMNSLRAEDTAVYYCAREYRSSWYNWFDSWGQGTLVTVSS
VL: SYELTQPPSVSVSPGQTARITCSGDALPKQYAYWYQQKPGQAPVMVIYKDSERPSGIPERFSGSSSGTTVTLTISGVQAEDEADYYCQSADSSGTSYVFGTGTKVTVL
B6: mAb 4A8 (published; Chi et al., 2020) (antibody, V domains shown)
VH: QVQLVESGAEVKKPGASVKVSCKVSGYTLTELSMHWVRQAPGKGLEWMGGFDPEDGETMYAQKFQGRVTMTEDTSTDTAYMELSSLRSEDTAVYYCATSTAVAGTPDLFDYYYGMDVWGQGTTVTVSS
VL: EIVMTQSPLSSPVTLGQPASISCRSSQSLVHSDGNTYLSWLQQRPGQPPRLLIYKISNRFSGVPDRFSGSGAGTDFTLKISRVEAEDVGVYYCTQATQFPYTFGQGTKVDIK

target: T1, SARS-CoV-2 S ectodomain trimer, prefusion-stabilized, 2P variant (Wrapp et al., 2020) (SARS-CoV-2, Wuhan-Hu-1, UniProt P0DTC2, stabilised); assay: not given

Binder | binding result
B1 | binds
B2 | binds
B3 | binds
B4 | binds
B5 | binds

target: T1, SARS-CoV-2 S ectodomain trimer, …; assay: ELISA

Binder | binding result
B6 | binds
